Measured values from paper PMC5998082, “Development of a Nanobody-based lateral flow assay to detect active Trypanosoma congolense infections” (Scientific Reports, 2018).

Molecular target: the molecule itself
Test: SEC; analytical SEC of TcoPYK alone, ENRICH 650 10/30 column, BioRAD gel filtration standard

B1: recombinant T. congolense pyruvate kinase (enzyme, UniProt G0UYF4 1-499, looked up)
chain: MSQLQHNIGLSIFEPVAKHRANRIICTIGPSTQSVEALKGLMKSGMSVARMNFSHGSYEYHQTTINNVRAAAAELGLHIGIALDTKGPEIRTGLFKDGEATYAPGDTVLVTTDPAFEKIGTKEKFYVDYPQLPNVVRPGGLIYVDDGVLTLRVLSKEDDCTLKCHVNNHHRLTDRKGINLPGCEVDLPAVSEKDRKDLQFGVEQGVDMIFASFIRTADQVREVRAALGEKGKDTLIISKIENHQGVQNIDAIIEASDGIMVARGDLGVEIPAEKVVVAQMCIISKCNVAGKPVICATQMLESMTTNPRPTRAEVTDVANAVFNGADCVMLSGETAKGKYPNEVVQYMVRICIEAQSATHDSVMFNSIKNLQKIPMSPEEAVCSSAVSSAFEVQAKAILVLSNTGRSARLISKYRPNCPIICATTRLLTCRQLNVTRSVESVYYDVDAHGEDNDREKRVQLGVDWAKTKGYVSAGDVMVIVHADHSVKGYPNQTRLVRVR
notes: also called TcoPYK; source: E. coli BL21(DE3), purified (details in the Supplementary Information)
- stoichiometry N: 4
